# Laboratory results published in article PMC8677947.
# Legend:
# [1] = target: GCN4 leucine zipper (Saccharomyces cerevisiae) (UniProt P03069); settings: cited from earlier work
# [2] = target: GCN4^WT (leucine zipper dimerization element of GCN4), C-terminal 6x His-tagged (yeast); experiment: native gel or EMSA; native (nondenaturing) PAGE beside SDS-PAGE of GCN4^WT and GCN4^3mut
# GCN4 leucine zipper, sequence (P03069 250-277): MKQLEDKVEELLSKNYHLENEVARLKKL
# GCN4^WT (leucine zipper dimerization element of GCN4), C-terminal 6x His-tagged (domain or fragment), sequence (P03069 whole entry, the tested form may be a part): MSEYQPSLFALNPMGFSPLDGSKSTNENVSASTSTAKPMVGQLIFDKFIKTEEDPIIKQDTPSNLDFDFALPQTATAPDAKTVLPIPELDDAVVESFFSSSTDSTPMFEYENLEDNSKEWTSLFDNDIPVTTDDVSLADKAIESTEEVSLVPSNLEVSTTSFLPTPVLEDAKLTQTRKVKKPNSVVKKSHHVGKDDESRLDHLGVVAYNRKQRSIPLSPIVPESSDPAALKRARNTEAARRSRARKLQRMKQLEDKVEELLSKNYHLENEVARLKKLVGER
Substance,Kd [1],stoichiometry N [2]
GCN4 leucine zipper (from UniProt P03069),0.18 nM,–
"GCN4^WT (leucine zipper dimerization element of GCN4), C-terminal 6x His-tagged (domain or fragment)",–,2
